# Measured values as given in publication PMC4387560 (Cell Research, 2015).
# T1: Scp1-WD40 (residues 567-1085) (S. pombe, UniProt O43043 567-1085)
# T1 sequence (looked up): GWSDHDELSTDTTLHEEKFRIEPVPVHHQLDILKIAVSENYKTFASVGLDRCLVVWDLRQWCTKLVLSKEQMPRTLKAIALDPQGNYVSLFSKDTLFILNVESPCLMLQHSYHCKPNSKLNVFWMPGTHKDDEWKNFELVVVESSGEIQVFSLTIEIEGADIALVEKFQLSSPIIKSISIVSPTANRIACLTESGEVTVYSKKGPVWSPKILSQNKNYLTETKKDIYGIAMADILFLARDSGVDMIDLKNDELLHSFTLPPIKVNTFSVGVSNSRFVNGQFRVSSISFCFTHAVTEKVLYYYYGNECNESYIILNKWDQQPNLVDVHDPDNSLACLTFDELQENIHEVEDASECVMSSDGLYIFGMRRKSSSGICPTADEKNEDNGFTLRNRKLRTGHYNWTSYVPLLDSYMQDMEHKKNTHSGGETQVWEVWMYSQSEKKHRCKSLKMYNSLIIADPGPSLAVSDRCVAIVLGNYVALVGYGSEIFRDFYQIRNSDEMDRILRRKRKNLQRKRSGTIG
# Biological target: T1, Scp1-WD40 (residues 567-1085)
# Test: pull-down
binder,measurement,value
"MBP-fused regulatory domain of Sre1 (residues 628-900) (domain or fragment, S. pombe, UniProt Q9UUD1 628-900, looked up) QHSKSSVHAELRELPECTANLIENSHADDVFSPNMVERLWVLAKCTRDSAQMSDSIISSLSDVLVLSPLEVLASWYAADLLDALLMESLSRKVEISEIEEIISLCPKNSSIIRHALLAKLVLFPENTADSLNEVLAAYKNTLDLCSQDKRKQSSVLKINLSKLFTLHSCLSLALQRLGYGDVSKRMYQEIFVPDSDADITPLSFIISWTALNTFAPICTSPKENDVVEKMAMYVRTAIGTLKIQDLKLSRKLINSCIDIGSRLQEDLGYVSSA",binding result,binds
